# Assay results taken from patent US11911450B2, “Method for managing pain” (UNIVERSITY OF MIAMI, priority 2017, dated 2024).
# “Also recorded” adds a separate entry of the source.
# B1: Car10: carbonic anhydrase 10, rodent ortholog, overexpressed (V5-tagged) protein (protein)
# chain: MEIVWEVLFLLQANFIVCISAQQNSPKIHEGWWAYKEVVQGSFVPVPSFWGLVNSAWNLCSVGKRQSPVNIETSHMIFDPFLTPLRINTGGRKVSGTMYNTGRHVSLRLDKEHLVNISGGPMTYSHRLEEIRLHFGSEDSQGSEHLLNGQAFSGEVQLIHYNHELYTNVTEAAKSPNGLVVVSIFIKVSDSSNPFLNRMLNRDTITRITYKNDAYLLQGLNIEELYPETSSFITYDGSMTIPPCYETASWIIMNKPVYITRMQMHSLRLLSQNQPSQIFLSMSDNFRPVQPLNNRCIRTNINFSLQGKDCPNNRAQKLQYRVNEWLLK
# modifications: left off: small tags and cut ends
# notes: carbonic anhydrase 10, rodent ortholog, overexpressed (V5-tagged) protein
# B2: CA10: human carbonic anhydrase 10, overexpressed (V5-tagged) protein; SEQ ID NO: 9 (protein)
# chain: MEIVWEVLFLLQANFIVCISAQQNSPKIHEGWWAYKEVVQGSFVPVPSFWGLVNSAWNLCSVGKRQSPVNIETSHMIFDPFLTPLRINTGGRKVSGTMYNTGRHVSLRLDKEHLVNISGGPMTYSHRLEEIRLHFGSEDSQGSEHLLNGQAFSGEVQLIHYNHELYTNVTEAAKSPNGLVVVSIFIKVSDSSNPFLNRMLNRDTITRITYKNDAYLLQGLNIEELYPETSSFITYDGSMTIPPCYETASWIIMNKPVYITRMQMHSLRLLSQNQPSQIFLSMSDNFRPVQPLNNRCIRTNINFSLQGKDCPNNRAQKLQYRVNEWLLK
# modifications: V5 tag
# Legend:
# [1] = test system: RYR-dependent calcium release; experiment: 5HT-induced RYR-dependent cytoplasmic calcium release in NBL cells (Fura2 imaging); format: cell-based, human; conditions: 50 μM 5HT, vs empty vector
# Method: (§1) Pharmacodynamics—Bioassay of Calcium Release: Fifteen mm glass coverslips (cat #72228 Electron Microscopy Sciences, Hatfield, PA) were coated with poly-D-Lysine (Sigma) followed by Laminin and 1×10^5 cells were seeded on each coverslip. Twenty-four hrs later, cells were transfected with AAV2-ITR, AAV2-V5-Car10, or AAV2-V5-CA10 vectors as previously described. In embodiments wherein AAV2 is not employed, other expression vectors (including viral vectors) are used. Fura-2AM (cat #F1221 ThermoFisher scientific, Waltham, MA) was dissolved in DMSO (50 μg in 50 μl) and 1% pluronic acid-127 (cat #P2443 Sigma, St Louis, MO) as the stock solution. Forty eight hrs after seeding, cells were loaded with 2 μM Fura-2AM dye for 45 min at room temperature in the dark in a standard Ca+2 buffer solution containing: 125 mM NaCl, 2 mM MgCl, 4.5 mM KCl, 10 glucose, 20 mM HEPES, 2 mM CaCl2, pH 7.4.25. Following dye loading, coverslips were washed with Ca^+2 buffer solution. […] Regions of interest over the field of view were selected and the mean pixels intensity at each frame was measured. Data was plotted as ratio fluorescence intensity versus time and subsequently converted to a relative scale.
# It was also determined that 5HT-induced RYR-dependent calcium release in NBL cells is inhibited by ryanodine. […]
# [2] = morphine dose vs paw withdrawal latency; format: in vivo, mouse; conditions: allometric conversion to 60 kg human
# Method: Behavioral tests: Thermal and mechanical sensitivity was measured by Hargreaves test and von Frey filament threshold calculations respectively. See, e.g., Boyce-Rustay et al. Methods Mol Biol. 2010; 617:41-55; Hargreaves et al., Pain. 1988; 32(1):77-88; and Chaplan et al., J Neurosci Methods. 1994; 53(1):55-63. Tests were performed in a quiet room with daylight-like illumination. Animals were habituated to the behavioral room and apparatus for at least 60 minutes for 1 week before a blinded investigator collected data. The thermal sensitivity test was performed using an IITC Plantar Analgesia Meter apparatus (IITC Life sciences, Woodland Hills, CA) with a plastic box placed on a glass plate of constant temperature (30° C.). The mouse plantar surface was exposed to a beam of radiant heat to induced paw withdrawal. Baseline latencies were adjusted to 5-9 sec with a maximum of 20 sec as cutoff to prevent potential injury. The latency time in seconds from the onset of the intense light beam to paw withdrawal was defined as the withdrawal latency of the paw. […] The mouse hind paw was pressed with one of a series of von Frey filaments with logarithmically incrementing stiffness (Stoelting Co, Wood Dale, IL) presented perpendicular to the plantar surface of each hind paw for 1-2 seconds, the 50% threshold was determined using the Up- and Down method.
# RYR1 = target: T1, RYR1 (Homo sapiens, UniProt P21817); experiment: immunoprecipitation (anti-RYR1) and western blot (anti-V5) in NBL cells; format: binding; conditions: 48 h after transfection
# T1 construct: NBL cells were transfected with AAV-V5-CA10 and AAV-V5-Car10 using Lipofectamin (LTX); endogenous in cells; host or cells: NBL cells transfected with V5-CA10 / V5-Car10 only
# Method: NBL cells were transfected with AAV-V5-CA10 and AAV-V5-Car10 using Lipofectamin (LTX). Cellular protein was extracted 48 h after transfection.
# Immunoprecipitation (IP) and western blotting (WB) was utilized to detect binding. Rabbit anti-RYR1 was used for IP and chicken anti-V5 was used for WB analyses. About 1/10 of the IP protein was used for WB to show the V5 labeled CA10 or Car10 by WB. B-actin was used as a loading control. See FIG. 33, which establishes co-immunoprecipitation of CA10 and RYR.
# [3] = test system: ITPR1-mediated cytoplasmic calcium release; experiment: ATP-induced cytoplasmic calcium release in HEK293 cells (Fura-2 imaging); format: cell-based, human; conditions: 1 μM ATP, overexpression vs empty vector
# Method: Cell culture and transfections: Human neuronal-derived (e.g., NBL), human non-neuronal derived (e.g., HEK293) cells, or dispersed rodent primary DRG cells can be used. HEK293 cells (cat #CRL-1573 ATCC Manassas, VA) were cultured in Dulbecco's modified Eagle's medium (DMEM-Glutamax cat #0566; Invitrogen) supplemented with 10% fetal bovine serum, FBS (cat #16140 ThermoFisher scientific, Waltham, MA) and 1% penicillin/streptomycin (cat #15140 ThermoFisher scientific, Waltham, MA). Cells were seeded in six-well plates at density of 1.0×10^5 cells per well. The following day, cells were transfected with plasmids via lipofectamine LTX reagent and plus (cat #15338 ThermoFisher scientific, Waltham, MA). For each transfection 2 μg of AAV2-ITR (control), AAV2-V5-Car10, or AAV2-V5-CA10 vectors was used. In various embodiments of the disclosure described herein, 2 μg of expression vectors (including positive and negative controls) in instances when AAV2 is not the viral vector employed.
# as §1
# To further examine whether FLAG-CA8-204 (data not shown), V5-Car10 and V5-CA10 overexpression can inhibit ATP-induced calcium release, HEK293 cells were infected with each if these constructs and real-time intracellular calcium concentrations at baseline and in response to ATP stimulation were measured (FIG. 2). […]
# T1 sequence (P21817 whole entry): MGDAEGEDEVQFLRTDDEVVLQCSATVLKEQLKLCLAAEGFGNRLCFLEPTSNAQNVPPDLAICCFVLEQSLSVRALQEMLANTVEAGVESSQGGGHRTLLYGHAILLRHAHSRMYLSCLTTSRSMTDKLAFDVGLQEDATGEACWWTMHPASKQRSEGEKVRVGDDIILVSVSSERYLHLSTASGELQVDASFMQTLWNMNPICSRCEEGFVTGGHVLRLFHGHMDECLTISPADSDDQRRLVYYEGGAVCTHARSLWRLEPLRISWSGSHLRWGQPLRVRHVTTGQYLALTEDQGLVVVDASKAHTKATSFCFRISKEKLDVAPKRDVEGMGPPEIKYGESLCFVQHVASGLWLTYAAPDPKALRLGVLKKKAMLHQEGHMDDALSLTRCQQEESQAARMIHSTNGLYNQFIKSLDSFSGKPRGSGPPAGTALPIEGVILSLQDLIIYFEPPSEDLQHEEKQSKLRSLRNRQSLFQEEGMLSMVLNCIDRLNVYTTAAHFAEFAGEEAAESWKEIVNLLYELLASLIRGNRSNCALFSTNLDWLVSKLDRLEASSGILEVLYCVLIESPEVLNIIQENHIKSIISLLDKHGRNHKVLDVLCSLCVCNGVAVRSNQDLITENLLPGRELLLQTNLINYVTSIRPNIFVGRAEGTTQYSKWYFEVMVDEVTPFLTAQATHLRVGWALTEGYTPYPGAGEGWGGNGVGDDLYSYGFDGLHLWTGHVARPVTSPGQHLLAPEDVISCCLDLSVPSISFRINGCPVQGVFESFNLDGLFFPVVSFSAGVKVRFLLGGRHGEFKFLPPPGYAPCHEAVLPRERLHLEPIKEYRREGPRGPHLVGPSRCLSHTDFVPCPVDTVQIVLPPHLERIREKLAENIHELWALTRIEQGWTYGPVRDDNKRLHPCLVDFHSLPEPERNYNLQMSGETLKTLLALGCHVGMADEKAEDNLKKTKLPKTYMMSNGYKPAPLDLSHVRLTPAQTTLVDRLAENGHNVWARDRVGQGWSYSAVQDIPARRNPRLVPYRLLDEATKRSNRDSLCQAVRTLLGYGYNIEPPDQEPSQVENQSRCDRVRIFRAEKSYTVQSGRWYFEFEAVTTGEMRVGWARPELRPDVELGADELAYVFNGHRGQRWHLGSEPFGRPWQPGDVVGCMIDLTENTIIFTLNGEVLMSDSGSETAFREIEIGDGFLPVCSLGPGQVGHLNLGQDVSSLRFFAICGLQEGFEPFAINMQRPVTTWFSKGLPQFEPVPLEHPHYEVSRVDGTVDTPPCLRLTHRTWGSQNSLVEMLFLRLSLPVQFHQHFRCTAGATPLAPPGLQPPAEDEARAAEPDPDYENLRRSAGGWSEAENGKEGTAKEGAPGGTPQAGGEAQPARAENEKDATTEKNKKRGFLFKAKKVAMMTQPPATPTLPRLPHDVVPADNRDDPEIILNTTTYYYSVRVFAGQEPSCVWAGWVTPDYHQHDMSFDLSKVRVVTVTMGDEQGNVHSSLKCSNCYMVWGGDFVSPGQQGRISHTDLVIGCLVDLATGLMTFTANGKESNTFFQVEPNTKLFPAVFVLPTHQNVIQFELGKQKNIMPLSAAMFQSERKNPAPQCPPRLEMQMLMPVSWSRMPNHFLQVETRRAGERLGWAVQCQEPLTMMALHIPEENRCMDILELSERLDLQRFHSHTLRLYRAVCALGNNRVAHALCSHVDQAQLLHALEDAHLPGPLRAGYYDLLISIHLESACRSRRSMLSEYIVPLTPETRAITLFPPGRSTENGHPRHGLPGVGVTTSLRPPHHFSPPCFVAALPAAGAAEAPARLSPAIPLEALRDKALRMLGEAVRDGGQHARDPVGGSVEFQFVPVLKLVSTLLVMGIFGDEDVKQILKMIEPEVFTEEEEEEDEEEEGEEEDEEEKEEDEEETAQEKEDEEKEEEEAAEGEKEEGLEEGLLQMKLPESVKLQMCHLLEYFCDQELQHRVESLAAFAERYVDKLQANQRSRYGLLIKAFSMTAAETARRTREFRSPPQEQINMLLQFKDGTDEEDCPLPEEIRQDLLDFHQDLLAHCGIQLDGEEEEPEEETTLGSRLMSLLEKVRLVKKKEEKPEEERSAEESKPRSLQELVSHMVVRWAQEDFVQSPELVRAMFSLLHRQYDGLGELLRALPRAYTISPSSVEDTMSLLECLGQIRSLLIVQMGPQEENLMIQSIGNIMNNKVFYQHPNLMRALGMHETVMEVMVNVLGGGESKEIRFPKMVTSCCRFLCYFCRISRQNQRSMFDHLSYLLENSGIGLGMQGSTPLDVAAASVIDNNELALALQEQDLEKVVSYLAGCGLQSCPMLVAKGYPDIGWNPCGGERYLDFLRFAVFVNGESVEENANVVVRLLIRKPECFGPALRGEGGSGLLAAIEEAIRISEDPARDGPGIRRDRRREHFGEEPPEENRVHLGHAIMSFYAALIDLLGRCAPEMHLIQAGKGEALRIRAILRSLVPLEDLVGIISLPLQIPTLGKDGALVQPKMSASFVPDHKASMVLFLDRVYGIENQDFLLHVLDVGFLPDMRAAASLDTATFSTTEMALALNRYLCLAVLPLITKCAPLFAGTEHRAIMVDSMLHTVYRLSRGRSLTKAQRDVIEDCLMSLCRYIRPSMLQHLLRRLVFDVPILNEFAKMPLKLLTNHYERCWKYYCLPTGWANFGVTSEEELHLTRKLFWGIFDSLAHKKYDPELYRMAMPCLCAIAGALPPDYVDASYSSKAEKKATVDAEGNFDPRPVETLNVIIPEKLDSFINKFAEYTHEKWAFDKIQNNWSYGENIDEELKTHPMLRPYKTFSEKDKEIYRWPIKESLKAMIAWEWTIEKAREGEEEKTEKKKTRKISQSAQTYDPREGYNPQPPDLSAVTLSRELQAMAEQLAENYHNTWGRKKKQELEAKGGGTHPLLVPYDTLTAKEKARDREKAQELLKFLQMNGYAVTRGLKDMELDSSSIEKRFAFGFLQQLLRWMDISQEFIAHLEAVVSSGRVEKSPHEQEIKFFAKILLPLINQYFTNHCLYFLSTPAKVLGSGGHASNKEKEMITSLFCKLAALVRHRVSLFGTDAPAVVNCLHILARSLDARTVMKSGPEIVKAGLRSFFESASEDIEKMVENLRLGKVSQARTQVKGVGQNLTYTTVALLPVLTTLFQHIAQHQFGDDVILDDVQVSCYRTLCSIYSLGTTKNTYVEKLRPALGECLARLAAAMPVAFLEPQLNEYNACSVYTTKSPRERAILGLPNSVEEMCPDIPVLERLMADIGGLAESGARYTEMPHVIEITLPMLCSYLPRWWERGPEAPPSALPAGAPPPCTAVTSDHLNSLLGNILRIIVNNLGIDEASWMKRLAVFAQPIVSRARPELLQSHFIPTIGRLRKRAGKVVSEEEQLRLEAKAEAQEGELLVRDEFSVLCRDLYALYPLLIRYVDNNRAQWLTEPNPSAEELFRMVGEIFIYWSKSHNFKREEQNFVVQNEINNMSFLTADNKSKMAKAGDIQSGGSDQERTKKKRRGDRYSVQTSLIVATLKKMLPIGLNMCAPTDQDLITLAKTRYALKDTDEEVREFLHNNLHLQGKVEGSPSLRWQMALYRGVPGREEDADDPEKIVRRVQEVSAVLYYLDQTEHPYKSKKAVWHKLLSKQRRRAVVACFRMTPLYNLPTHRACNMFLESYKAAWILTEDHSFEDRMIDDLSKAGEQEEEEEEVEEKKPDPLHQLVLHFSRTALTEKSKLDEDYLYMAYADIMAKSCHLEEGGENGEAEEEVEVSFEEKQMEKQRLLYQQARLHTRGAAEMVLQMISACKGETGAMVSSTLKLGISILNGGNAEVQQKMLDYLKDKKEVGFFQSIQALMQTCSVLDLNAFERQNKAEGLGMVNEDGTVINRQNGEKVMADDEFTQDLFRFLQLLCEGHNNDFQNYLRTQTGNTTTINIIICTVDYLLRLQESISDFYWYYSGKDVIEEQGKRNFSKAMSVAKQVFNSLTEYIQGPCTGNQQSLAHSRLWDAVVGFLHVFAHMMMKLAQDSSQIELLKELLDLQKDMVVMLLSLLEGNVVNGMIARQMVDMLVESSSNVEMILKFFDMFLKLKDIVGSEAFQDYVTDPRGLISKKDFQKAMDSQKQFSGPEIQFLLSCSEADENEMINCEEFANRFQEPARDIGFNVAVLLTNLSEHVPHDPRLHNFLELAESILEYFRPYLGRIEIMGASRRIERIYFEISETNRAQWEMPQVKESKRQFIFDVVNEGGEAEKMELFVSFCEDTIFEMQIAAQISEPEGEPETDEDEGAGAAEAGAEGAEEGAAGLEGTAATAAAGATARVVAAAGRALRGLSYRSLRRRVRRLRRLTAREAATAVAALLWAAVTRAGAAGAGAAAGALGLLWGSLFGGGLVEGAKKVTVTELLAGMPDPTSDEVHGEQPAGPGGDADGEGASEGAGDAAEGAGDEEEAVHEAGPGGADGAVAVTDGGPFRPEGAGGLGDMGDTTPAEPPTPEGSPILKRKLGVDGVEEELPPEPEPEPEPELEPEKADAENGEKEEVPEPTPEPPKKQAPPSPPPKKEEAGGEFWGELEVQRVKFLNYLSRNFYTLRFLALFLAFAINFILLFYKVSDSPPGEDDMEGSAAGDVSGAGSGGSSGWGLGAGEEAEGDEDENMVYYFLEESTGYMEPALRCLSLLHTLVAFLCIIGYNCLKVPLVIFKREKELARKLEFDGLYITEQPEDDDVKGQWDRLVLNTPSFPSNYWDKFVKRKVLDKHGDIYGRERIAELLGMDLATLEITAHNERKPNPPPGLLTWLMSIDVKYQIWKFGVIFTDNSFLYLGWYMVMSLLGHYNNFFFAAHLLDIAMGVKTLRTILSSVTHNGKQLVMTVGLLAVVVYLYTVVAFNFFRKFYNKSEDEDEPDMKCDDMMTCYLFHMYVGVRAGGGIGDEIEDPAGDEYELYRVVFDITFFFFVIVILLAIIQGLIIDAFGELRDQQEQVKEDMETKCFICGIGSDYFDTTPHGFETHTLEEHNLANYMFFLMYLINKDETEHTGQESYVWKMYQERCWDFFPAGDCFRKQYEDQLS
molecule,measurement,setting,value
B1,"5HT-induced cytoplasmic calcium release, effect of overexpression",[1]; listed as V5-Car10,inhibited; also recorded: inhibits 50 μM 5HT-induced cytoplasmic calcium release
same,paw withdrawal latency elevation compared to morphine human oral equivalent dose,[2],produces profound analgesia
same,binding to RYR1 (co-immunoprecipitation),RYR1,binds
same,ATP-induced cytoplasmic calcium release (Fura-2 340/380 ratio),[3],inhibits ITPR1-mediated cytoplasmic calcium release
same,ATP-induced cytoplasmic calcium release (Fura-2 340/380 ratio),[3]; listed as V5-Car10,inhibits ATP-induced cytoplasmic calcium release
B2,"5HT-induced cytoplasmic calcium release, effect of overexpression",[1]; listed as V5-CA10,inhibited; also recorded: inhibits 50 μM 5HT-induced cytoplasmic calcium release
same,paw withdrawal latency elevation compared to morphine human oral equivalent dose,[2],produces profound analgesia
same,binding to RYR1 (co-immunoprecipitation),RYR1,co-immunoprecipitation; also recorded: binds
same,ATP-induced cytoplasmic calcium release (Fura-2 340/380 ratio),[3],inhibits ITPR1-mediated cytoplasmic calcium release
same,ATP-induced cytoplasmic calcium release (Fura-2 340/380 ratio),[3]; listed as V5-CA10,inhibits ATP-induced cytoplasmic calcium release
